{
  "source": "paper PMC5849717",
  "key": {"[1]": {"target": "FLAG-mYFP-β2AR (β2-adrenergic receptor), total receptor pulled down with anti-FLAG (mouse) (UniProt P18762)", "assay": "single-molecule pulldown (SiMPull) with two-colour co-localisation; FLAG-mYFP-β2AR and FLAG-mCherry-β2AR co-expressed 1:1 in HEK293, ISO-treated; lysate pulled down with anti-FLAG or phospho-specific antibodies; mCherry and mYFP spots within 1 pixel (~150 nm) counted as co-localised; overlap = co-localised mYFP / total mYFP; reference mCherry-mYFP fusion gives 58.8% overlap"}, "[2]": {"target": "FLAG-mYFP-β2AR (β2-adrenergic receptor), total receptor pulled down with anti-FLAG (mouse) (UniProt P18762)", "assay": "single-molecule pulldown (SiMPull) with photobleaching step analysis; lysates (10 mM Tris pH 7.9, 0.1% DDM, 150 mM NaCl, 2 mM EDTA) of cells expressing mYFP-tagged receptor, untreated or ISO 5 min; captured on slides by biotinylated anti-FLAG or by phospho-specific β2AR antibodies with biotinylated secondary IgG; TIRF; bleaching steps of mYFP counted; percent dimer calculated assuming 75% active mYFP"}, "[3]": {"target": "GRK-phosphorylated β2AR (FLAG-mYFP-β2AR pulled down with anti-pS355/356) (mouse) (UniProt P18762)", "assay": "single-molecule pulldown (SiMPull) with two-colour co-localisation; FLAG-mYFP-β2AR and FLAG-mCherry-β2AR co-expressed 1:1 in HEK293, ISO-treated; lysate pulled down with anti-FLAG or phospho-specific antibodies; mCherry and mYFP spots within 1 pixel (~150 nm) counted as co-localised; overlap = co-localised mYFP / total mYFP; reference mCherry-mYFP fusion gives 58.8% overlap"}, "[4]": {"target": "GRK-phosphorylated β2AR (FLAG-mYFP-β2AR pulled down with anti-pS355/356) (mouse) (UniProt P18762)", "assay": "single-molecule pulldown (SiMPull) with photobleaching step analysis; lysates (10 mM Tris pH 7.9, 0.1% DDM, 150 mM NaCl, 2 mM EDTA) of cells expressing mYFP-tagged receptor, untreated or ISO 5 min; captured on slides by biotinylated anti-FLAG or by phospho-specific β2AR antibodies with biotinylated secondary IgG; TIRF; bleaching steps of mYFP counted; percent dimer calculated assuming 75% active mYFP"}, "[5]": {"target": "GRK-phosphorylated β2AR (FLAG-mYFP-β2AR pulled down with anti-pS355/356) (mouse) (UniProt P18762)", "assay": "single-molecule pulldown (SiMPull) with photobleaching step analysis; lysates (10 mM Tris pH 7.9, 0.1% DDM, 150 mM NaCl, 2 mM EDTA) of cells expressing mYFP-tagged receptor, untreated or ISO 5 min; captured on slides by biotinylated anti-FLAG or by phospho-specific β2AR antibodies with biotinylated secondary IgG; TIRF; bleaching steps of mYFP counted; percent dimer calculated assuming 75% active mYFP", "remark": "listed apart in the source"}, "[6]": {"target": "PKA-phosphorylated β2AR (FLAG-mYFP-β2AR pulled down with anti-pS261/262) (mouse) (UniProt P18762)", "assay": "single-molecule pulldown (SiMPull) with two-colour co-localisation; FLAG-mYFP-β2AR and FLAG-mCherry-β2AR co-expressed 1:1 in HEK293, ISO-treated; lysate pulled down with anti-FLAG or phospho-specific antibodies; mCherry and mYFP spots within 1 pixel (~150 nm) counted as co-localised; overlap = co-localised mYFP / total mYFP; reference mCherry-mYFP fusion gives 58.8% overlap"}, "[7]": {"target": "PKA-phosphorylated β2AR (FLAG-mYFP-β2AR pulled down with anti-pS261/262) (mouse) (UniProt P18762)", "assay": "single-molecule pulldown (SiMPull) with photobleaching step analysis; lysates (10 mM Tris pH 7.9, 0.1% DDM, 150 mM NaCl, 2 mM EDTA) of cells expressing mYFP-tagged receptor, untreated or ISO 5 min; captured on slides by biotinylated anti-FLAG or by phospho-specific β2AR antibodies with biotinylated secondary IgG; TIRF; bleaching steps of mYFP counted; percent dimer calculated assuming 75% active mYFP"}},
  "note": "Like-named read-outs stand apart in the source and are kept apart here.",
  "data": [
    {"substance": "FLAG-mYFP-β2AR (β2-adrenergic receptor), total receptor pulled down with anti-FLAG, P18762 1-418 (receptor; other documents disagree on this pair)", "values": [
      {"measurement": "percent overlap between mYFP and mCherry copies", "setting": "[1]", "result": 13.2, "unit": "%"},
      {"measurement": "percent dimers", "setting": "[2]", "result": 42.7, "unit": "%"},
      {"measurement": "stoichiometry N", "setting": "[2]", "result": 2}
    ]},
    {"substance": "GRK-phosphorylated β2AR (FLAG-mYFP-β2AR pulled down with anti-pS355/356), P18762 1-418 (receptor; phosphoserine at 355/356; phosphoserine at 355/356; other documents disagree on this pair)", "values": [
      {"measurement": "percent overlap between mYFP and mCherry copies", "setting": "[3]", "result": "< 3.2", "unit": "%"},
      {"measurement": "percent monomers", "setting": "[4]", "result": 86.5, "unit": "%"},
      {"measurement": "percent dimers", "setting": "[5]", "result": 12, "unit": "%"},
      {"measurement": "percent monomers", "setting": "[5]", "result": 88, "unit": "%"}
    ]},
    {"substance": "PKA-phosphorylated β2AR (FLAG-mYFP-β2AR pulled down with anti-pS261/262), P18762 1-418 (receptor; phosphoserine at 261/262; phosphoserine at 261/262; other documents disagree on this pair)", "values": [
      {"measurement": "percent overlap between mYFP and mCherry copies", "setting": "[6]", "result": "> 20.4", "unit": "%"},
      {"measurement": "percent dimers", "setting": "[7]", "result": 68.8, "unit": "%"},
      {"measurement": "stoichiometry N", "setting": "[7]", "result": 2}
    ]}
  ]
}
